This is an account of results in publication doi:10.1101/2024.04.23.590744 (bioRxiv, 2024).

As usually defined, the stoichiometry N is the number of molecules, sites or subunits per partner or assembly.

Where a chain is given by its changes, count along the chain named. Numbers in names are those of the source. Read-outs that look alike come from different tables or passages of the source.

Common to all, as to assay: SEC-MALS
Data set [1] has as its target human LETM1 F-EF-hand domain, residues 643-699, D676K/N678K (human) (UniProt O95202).
For data set [2] the target is unchanged. This is another data set of the same source.
Data set [3] deals with the molecule itself.
Data set [4] deals with the molecule itself. The source holds these as a separate data set.

With “human LETM1 F-EF-hand domain, residues 643-699, D676K/N678K (from UniProt O95202-1 643-699) (domain or fragment)”, the stoichiometry N in data set [1] and in data set [2] was 2 in each case.

B1: human LETM1 F-EF-hand domain, residues 643-699, wild type (domain or fragment, UniProt O95202-1 643-699, looked up)
chain: TGENVISVAELINAMKQVKHIPESKLTSLAAALDENKDGKVNIDDLVKVIELVDKED
Take B1: in “SEC-MALS [3]”, the “stoichiometry N” value is roughly 2.

B2: human LETM1 F-EF-hand domain, residues 643-699, D687E (domain or fragment, UniProt O95202-1 643-699, looked up)
chain: B1 chain with D45E
As for B2, the “stoichiometry N” value in “SEC-MALS [3]” was found to be 2.

B3: human LETM1 F-EF-hand domain, residues 643-699, D676A/N678A (domain or fragment, UniProt O95202-1 643-699, looked up)
chain: B1 chain with D34A, N36A
Take B3: the “stoichiometry N” value in “SEC-MALS [4]” was 2.

B4: human LETM1 F-EF-hand domain, residues 643-699, D686A/D687A (domain or fragment, UniProt O95202-1 643-699, looked up)
chain: B1 chain with D44A, D45A
As to B4, in the data set “SEC-MALS [4]”, the “stoichiometry N” value is 2.
